The text below walks through data of publication PMC7316778 (Nature Communications, 2020).

The subject of test [1] is FES^S700C HL-60 neutrophils. As to the kind of experiment: Phagocytosis assay with GFP-expressing E. coli. It is filed as cell-based, human. The settings on record: for GFP-positive cells (%): Sup. Fig. 15a; for Mean GFP intensity (RFU): Sup. Fig. 15b. The method, then: HL-60 cells were differentiated to neutrophils as described above. Cells were counted and centrifuged (200g, 5 min), followed by resuspension in growth medium without antibiotics. Cells were incubated with vehicle or inhibitor (from 1000x concentrated stocks in DMSO) for 1 h at 37 °C prior to infection (1×10^6 cells in 900 µL in 12-well plate). Meanwhile, E. coli B834(DE3) constitutively expressing GFP^A206K were grown in LB medium to an OD600 of 0.4–1.0, after which bacteria were centrifuged (2000g, 5 min), washed and resuspended in PBS to appropriate density. Neutrophils were infected by addition of bacteria at multiplicity of infection (MOI) of 30 unless stated otherwise. Cells were then incubated for 1 h at 37 °C unless stated otherwise, after which cells were resuspended and transferred to Eppendorf tubes, washed in FACS buffer (1 mL, 500g, 3 min) and fixed in 1% PFA in PBS (15 min, 4 °C, in the dark). Samples were further processed as described above.
Events (generally 20,000 per condition) were gated by forward and side scatter (cells), side scatter area (singlets) and the percentage of GFP-positive cells and GFP mean fluorescence intensity (MFI) were determined based on background fluorescence for non-infected cells. The GREEN-B channel (525/30 filter) was used to detect GFP.

The target of test [2] is CSK (Homo sapiens, UniProt P41240). As to the kind of experiment: PamChip microarray peptide phosphorylation. The settings on record: peptide substrate phosphorylated by CSK.
Chain of CSK (P41240 whole entry): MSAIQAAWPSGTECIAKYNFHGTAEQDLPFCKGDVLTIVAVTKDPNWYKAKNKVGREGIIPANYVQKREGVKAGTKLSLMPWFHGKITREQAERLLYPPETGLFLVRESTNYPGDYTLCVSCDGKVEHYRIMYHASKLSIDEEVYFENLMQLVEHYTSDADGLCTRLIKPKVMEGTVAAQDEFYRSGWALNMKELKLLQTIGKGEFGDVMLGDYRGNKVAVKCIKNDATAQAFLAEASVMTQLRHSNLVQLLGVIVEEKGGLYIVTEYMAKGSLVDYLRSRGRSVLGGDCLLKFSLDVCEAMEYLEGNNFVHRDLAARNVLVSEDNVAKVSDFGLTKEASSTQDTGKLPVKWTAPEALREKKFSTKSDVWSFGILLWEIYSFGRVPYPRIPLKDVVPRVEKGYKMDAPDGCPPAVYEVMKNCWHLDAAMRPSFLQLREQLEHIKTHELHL
Test [3] deals with FGR (Homo sapiens, UniProt P09769). As to the kind of experiment: PamChip microarray peptide phosphorylation. The settings on record: peptide substrate phosphorylated by FGR.
Test [4] concerns the target ABL1 (Homo sapiens, UniProt P00519). The experiment in a line: PamChip microarray peptide phosphorylation. The settings on record: peptide substrate phosphorylated by ABL1.
The target in test [5] is SYK (Homo sapiens, UniProt P43405). The experiment in a line: PamChip microarray peptide phosphorylation. The settings on record: peptide substrate phosphorylated by SYK.
Test [6] deals with LYN (Homo sapiens, UniProt P07948). The experiment in a line: PamChip microarray peptide phosphorylation. As to conditions: peptide substrate phosphorylated by LYN.
Chain of LYN (P07948 whole entry): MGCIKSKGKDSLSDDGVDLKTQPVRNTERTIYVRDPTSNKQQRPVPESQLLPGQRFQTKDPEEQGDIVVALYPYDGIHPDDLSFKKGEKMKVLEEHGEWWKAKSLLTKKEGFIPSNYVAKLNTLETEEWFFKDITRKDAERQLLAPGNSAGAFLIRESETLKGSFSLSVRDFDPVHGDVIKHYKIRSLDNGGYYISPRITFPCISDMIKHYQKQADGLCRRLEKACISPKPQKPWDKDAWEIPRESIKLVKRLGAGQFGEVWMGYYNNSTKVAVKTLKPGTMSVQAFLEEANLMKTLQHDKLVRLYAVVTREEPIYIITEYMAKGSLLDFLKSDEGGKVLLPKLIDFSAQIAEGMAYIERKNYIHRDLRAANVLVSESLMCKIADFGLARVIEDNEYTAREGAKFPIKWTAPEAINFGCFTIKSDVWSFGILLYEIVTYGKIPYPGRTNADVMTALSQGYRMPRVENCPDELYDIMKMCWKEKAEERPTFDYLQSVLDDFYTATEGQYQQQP
Test [7] deals with T1, FES^WT (Homo sapiens, UniProt P07332).
T1 construct: human FES cDNA encoding residues 448–822 or human FER cDNA encoding residues 448–820 was amplified by PCR; made in house; host or cells: E. coli BL21(DE3), co-expressing YopH phosphatase
T1 sequence (P07332 448-822): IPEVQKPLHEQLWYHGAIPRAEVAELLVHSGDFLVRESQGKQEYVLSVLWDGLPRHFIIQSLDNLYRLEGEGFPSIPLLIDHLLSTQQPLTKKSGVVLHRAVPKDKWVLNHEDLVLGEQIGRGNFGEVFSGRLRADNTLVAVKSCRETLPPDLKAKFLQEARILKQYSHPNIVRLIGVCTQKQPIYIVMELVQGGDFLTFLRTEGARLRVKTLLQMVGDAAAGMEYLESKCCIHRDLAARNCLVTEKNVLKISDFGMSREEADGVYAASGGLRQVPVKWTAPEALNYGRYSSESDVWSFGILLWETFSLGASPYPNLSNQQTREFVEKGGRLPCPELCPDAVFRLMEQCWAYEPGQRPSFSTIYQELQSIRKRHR
As to the kind of experiment: PamChip microarray peptide phosphorylation. It is filed as biochemical. As to conditions: peptide substrate phosphorylated by FES - WT.

Where “and” joins values, the source holds several entries; their conditions need not be identical. Equal entries are not always repeated.

Chain of ABL1 (P00519 whole entry): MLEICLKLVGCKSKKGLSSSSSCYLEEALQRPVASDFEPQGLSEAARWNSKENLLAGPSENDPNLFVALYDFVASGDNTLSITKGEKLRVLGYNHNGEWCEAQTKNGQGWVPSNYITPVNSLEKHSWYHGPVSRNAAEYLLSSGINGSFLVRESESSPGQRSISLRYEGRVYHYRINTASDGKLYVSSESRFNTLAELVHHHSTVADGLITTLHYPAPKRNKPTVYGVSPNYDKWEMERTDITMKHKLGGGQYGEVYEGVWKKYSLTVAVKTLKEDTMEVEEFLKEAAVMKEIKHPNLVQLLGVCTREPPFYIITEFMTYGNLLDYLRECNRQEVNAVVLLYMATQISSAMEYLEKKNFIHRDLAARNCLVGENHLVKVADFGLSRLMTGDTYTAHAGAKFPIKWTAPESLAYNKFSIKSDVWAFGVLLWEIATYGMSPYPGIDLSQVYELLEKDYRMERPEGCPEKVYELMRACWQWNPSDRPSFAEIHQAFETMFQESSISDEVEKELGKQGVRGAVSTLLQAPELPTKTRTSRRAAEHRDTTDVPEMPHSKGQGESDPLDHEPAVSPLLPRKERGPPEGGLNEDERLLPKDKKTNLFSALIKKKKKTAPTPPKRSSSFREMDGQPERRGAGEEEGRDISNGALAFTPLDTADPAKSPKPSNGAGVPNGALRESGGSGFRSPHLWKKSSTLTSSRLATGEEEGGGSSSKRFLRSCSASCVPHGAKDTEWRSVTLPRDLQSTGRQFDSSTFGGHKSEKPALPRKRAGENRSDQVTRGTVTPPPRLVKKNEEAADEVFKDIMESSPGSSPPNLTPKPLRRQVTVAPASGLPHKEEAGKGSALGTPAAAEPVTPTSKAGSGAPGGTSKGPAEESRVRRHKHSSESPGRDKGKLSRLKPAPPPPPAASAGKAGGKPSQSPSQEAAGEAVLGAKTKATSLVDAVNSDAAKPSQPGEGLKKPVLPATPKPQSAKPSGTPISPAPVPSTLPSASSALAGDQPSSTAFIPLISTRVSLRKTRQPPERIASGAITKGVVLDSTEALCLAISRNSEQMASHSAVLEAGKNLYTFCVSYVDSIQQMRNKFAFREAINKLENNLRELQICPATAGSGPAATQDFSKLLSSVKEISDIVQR

Turning to `C=C1[C@@H](C)[C@H]2[C@H](Cc3ccccc3)NC(=O)[C@]23[C@H](OC(C)=O)/C=C/[C@@](C)(O)C(=O)[C@@H](C)C/C=C/[C@H]3[C@@H]1O` [Cytochalasin D], the Phagocytic index in test [1] (Figure 7i, replicates) was 55.7493 and 57.2763 and 70.3881 and 51.4867 and 48.2922; in test [1] (MOI 0, Sup. Fig. 15d) it was 8.168 and 11.9502 and 9.328; in test [1] (MOI 5, Sup. Fig. 15d) it was 77.8958 and 83.9457 and 75.261; in test [1] (MOI 10, Sup. Fig. 15d), 109.345 and 104.624 and 85.7245; in test [1] (MOI 30, Sup. Fig. 15d), 212.699 and 198.296 and 185.432; in test [1] (MOI 50, Sup. Fig. 15d) it was 255.429 and 327.443 and 225.712. Besides, the Phagocytic index in test [1] (infection time 15 min, Sup. Fig. 15c) was 77.5947 and 106.25 and 109.641; in test [1] (infection time 30 min, Sup. Fig. 15c) it was 91.7362 and 115.049 and 104.822; in test [1] (infection time 60 min, Sup. Fig. 15c) it was 117.281 and 140.555 and 99.951. In addition, the “GFP-positive cells (%)” value in test [1] (infection time 0 min) is 14.1178% and 22.6106% and 27.9257%; in test [1] (infection time 15 min), 27.3639% and 36.225% and 38.7869%; in test [1] (infection time 30 min), 33.857% and 41.6734% and 39.0238%; in test [1] (infection time 60 min), 50.1058% and 58.9504% and 42.1365%. In addition, the “Mean GFP intensity (RFU)” value was 245.785 RFU and 271.934 RFU and 267.216 RFU in test [1] (infection time 0 min); 283.565 RFU and 293.305 RFU and 282.675 RFU in test [1] (infection time 15 min); 270.952 RFU and 276.074 RFU and 268.61 RFU in test [1] (infection time 30 min); 234.066 RFU and 238.429 RFU and 237.207 RFU in test [1] (infection time 60 min).

As to “AMPE_5_17 (EREGSKRYCIQTK; UniProt Q07075 5-17, looked up, fragment)”, the “Relative phosphorylation (% of highest signal)” value in test [2] is -0.745 % of highest signal; in test [3], -1.5 % of highest signal; in test [4] it was -0.436 % of highest signal; in test [5] it was -1.8 % of highest signal; in test [6], 0.114 % of highest signal; in test [7] it was -0.1 % of highest signal.

ART_004_EAIYAAPFAKKKXC: the “Relative phosphorylation (% of highest signal)” value is given as 17.0 % of highest signal in test [2]; 8.3 % of highest signal in test [3]; 100.0 % of highest signal in test [4]; 3.2 % of highest signal in test [5]; 2.6 % of highest signal in test [6]; 5.0 % of highest signal in test [7].

With “DDR1_506_518 (LLLSNPAYRLLLA; UniProt Q08345 506-518, looked up, fragment)”, the “Relative phosphorylation (% of highest signal)” value is -1.7 % of highest signal in test [2]; -6.2 % of highest signal in test [3]; -1.4 % of highest signal in test [4]; -3.9 % of highest signal in test [5]; -1.0 % of highest signal in test [6]; -0.4 % of highest signal in test [7].

Turning to “EFS_246_258_Y253F (GGTDEGIFDVPLL; UniProt O43281 246-258, looked up, fragment Y253F)”, the “Relative phosphorylation (% of highest signal)” value in test [2] is -0.6 % of highest signal; in test [3] it was -4.8 % of highest signal; in test [4], -0.5 % of highest signal; in test [5], -1.2 % of highest signal; in test [6], -0.264 % of highest signal; in test [7], -0.634 % of highest signal.

With “EPHA2_581_593 (QLKPLKTYVDPHT; UniProt P29317 581-593, looked up, fragment)”, the “Relative phosphorylation (% of highest signal)” value was -0.569 % of highest signal in test [2]; -3.2 % of highest signal in test [3]; -0.273 % of highest signal in test [4]; -1.0 % of highest signal in test [5]; -0.186 % of highest signal in test [6]; -0.0404 % of highest signal in test [7].

Take “EPHA4_921_933 (QAIKMDRYKDNFT; UniProt P54764 921-933, looked up, fragment)”: the “Relative phosphorylation (% of highest signal)” value in test [2] was -0.535 % of highest signal; in test [3], -1.7 % of highest signal; in test [4], -0.327 % of highest signal; in test [5] it was -0.4 % of highest signal; in test [6], -0.126 % of highest signal; in test [7], -0.348 % of highest signal.

As to “EPOR_361_373 (SEHAQDTYLVLDK; UniProt P19235 361-373, looked up, fragment)”, the “Relative phosphorylation (% of highest signal)” value is 2.0 % of highest signal in test [2]; 2.0 % of highest signal in test [3]; 0.0544 % of highest signal in test [4]; 12.7 % of highest signal in test [5]; 1.2 % of highest signal in test [6]; 3.3 % of highest signal in test [7].

Take “MBP_259_271 (FGYGGRASDYKSA; UniProt P02686 259-271, looked up, fragment)”: the “Relative phosphorylation (% of highest signal)” value in test [2] was -0.0622 % of highest signal; in test [3], 0.634 % of highest signal; in test [4], -0.0479 % of highest signal; in test [5], 0.9 % of highest signal; in test [6] it was -0.152 % of highest signal; in test [7] it was -0.152 % of highest signal.

For the compound “MBP_263_275 (GRASDYKSAHKGF; UniProt P02686 263-275, looked up, fragment)”, the “Relative phosphorylation (% of highest signal)” value is recorded as -0.5 % of highest signal in test [2]; -0.9 % of highest signal in test [3]; -0.13 % of highest signal in test [4]; -0.355 % of highest signal in test [5]; -0.172 % of highest signal in test [6]; -0.25 % of highest signal in test [7].

Take “MK01_198_210 (IMLNSKGYTKSID; UniProt P28482 198-210, looked up, fragment)”: the “Relative phosphorylation (% of highest signal)” value is -0.8 % of highest signal in test [2]; -3.8 % of highest signal in test [3]; -0.5 % of highest signal in test [4]; -1.2 % of highest signal in test [5]; -0.184 % of highest signal in test [6]; -0.6 % of highest signal in test [7].

Take “NPT2A_501_513 (AKALGKRTAKYRW; UniProt Q06495 501-513, looked up, fragment)”: the “Relative phosphorylation (% of highest signal)” value was -0.4 % of highest signal in test [2]; -2.1 % of highest signal in test [3]; -0.2 % of highest signal in test [4]; -0.846 % of highest signal in test [5]; -0.318 % of highest signal in test [6]; 0.553 % of highest signal in test [7].
